Data as given in patent publication US20260265316A1, “IMMUNOTHERAPEUTIC METHODS, COMPOUNDS, AND COMPOSITIONS FOR TREATING OR PREVENTING CELIAC DISEASE” (DBV Technologies, priority 2023, published 2026).
Substitutions are numbered along the chain they refer to.

B1: QLQPFPQPELPYPQPELPYPQPELPYPQPQPGPRRKKPQPEQPEQPFPEQPQGARRKKPQQPFPQPEQPFPWQPQGPKKPSGEGSFQPSQENPQ (peptide)
chain: QLQPFPQPELPYPQPELPYPQPELPYPQPQPGPRRKKPQPEQPEQPFPEQPQGARRKKPQQPFPQPEQPFPWQPQGPKKPSGEGSFQPSQENPQ
B2: QLQPFPQPELPYPQPELPYPQPELPYPQPQPGPRRKKPQPEQPEQPFPEQPQGCRRKKPQQPFPQPEQPFPWQPQGPKKPSGEGSFQPSQENPQ (peptide)
chain: B1 chain with A54C
B3: QLQPFPQPELPYPQPELPYPQPELPYPQPQPKKKKPQPEQPEQPFPEQPQKKKKPQQPFPQPEQPFPWQPQKKKKPSGEGSFQPSQENPQ (peptide)
chain: QLQPFPQPELPYPQPELPYPQPELPYPQPQPKKKKPQPEQPEQPFPEQPQKKKKPQQPFPQPEQPFPWQPQKKKKPSGEGSFQPSQENPQ

Assays:
[1] = test system: circulating gluten-specific CD4+ T cells in whole blood of HLA-DQ2+ CeD patients; test: Whole blood IL-2 cytokine release assay, HLA-DQ2+ CeD participants; type: cell-based, human; settings: 24 hours; for IL-2 response (in words): HLA-DQ2+ donors, whole blood; for mean IL-2 titer: HLA-DQ2+ participants, 10 μM
Source text: FIGS. 10A-10B are graphs depicting the evaluation of the ability of various molarities of three gliadin polypeptides (Cv6, Av6, and 4K), two peptide mixes containing either the four individual building blocks BB1, BB2a, BB3a and BB4a (BB1-4a) or two Nexvax2 peptides (Nex01/02), and six individual building blocks or peptides (BB1, BB2a, BB3a, BB4a, Nex01, and Nex02) to restimulate gluten-specific T cell collected from HLA-DQ2+ CeD patients using a whole blood IL-2 release assay. The whole blood cytokine release assay was performed in six HLA-DQ2+ participants with biopsy-confirmed celiac disease. Whole blood was stimulated with the three gliadin polypeptide constructs Cv6, Av6, and 4K at 10, 2.5, and 0.5 μM final molarities, as indicated. Alternatively, whole blood was stimulated with a mix of peptides containing either the four building blocks BB1, BB2a, BB3a, and BB4a (BB1-4a) or Nex01 and Nex 02 (Nex01/02) at 10, 2.5, and 0.5 μM final molarities. Building blocks (BB1, BB2a, BB3a, and BB4a), Nex01, and Nex02 were also tested as individual peptides, at a single concentration of 10 μM. After 24 hours of incubation, the concentration of IL-2 was quantified from plasma using an MSD IL-2 S-plex ELISA. Data are expressed in femtogram/mL of plasma (A), or as fold change from the negative control (PBS 1×) (B). Symbols represent individual participants (patient ID); bars represent median+interquartile range of individual values.
(§1) The overarching objective of this assay was to validate that the polypeptide constructs (Cv6, Av6, and 4K) can be recognized and processed by human APCs, and they can then promote the activation of gluten-specific effector/memory CD4^+ T cells in CeD patients. A Cytokine Release Assay (CRA) was used (previously described in the literature: Anderson et al., Clinical & Experimental Immunology, 2021 June; 204(3): 321-334; and in Hardy et al., Frontiers in Immunology, 2021, Vol. 12, Article 661662, the entire contents of each of which are incorporated by reference herein). This assay quantifies IL-2 produced by circulating gluten-specific CD4^+ T cells present in the blood of CeD patients upon in vitro stimulation with gluten-derived antigens. Due to the extremely high sensitivity of this CRA, no oral exposure to gluten was required prior to blood sampling.
(§2) Informed consent was obtained from all subjects prior to blood collection.
(§3) Unfractionated blood (225 μL per well of a 96-well plate) was then rapidly restimulated for 24 hours with each of three of the polypeptide constructs provided herein (SEQ ID NO:23 wherein X is C [Cv6, i.e., SEQ ID NO:49], SEQ ID NO:23 wherein X is A [Av6, i.e., SEQ ID NO:50], and SEQ ID NO:46 [4K]) and with each of four individual building blocks (SEQ ID NO:15 wherein Z is E [BB1], SEQ ID NO:16 wherein Z is E [BB2a], SEQ ID NO:20 wherein Z is E [BB3a], and SEQ ID NO:18 wherein Z is E [BB4a]). The concentrations of the polypeptide constructs ranged from 0.5 to 10 micromolar, and the concentration for each individual building block was 10 micromolar. […] These two peptides comprise an N-terminal pyroglutamate and a C-terminal amide. Nex01 and Nex02 were the two gliadin peptides used in the Nexvax2 immunotherapeutic vaccine that was intended to restore immune tolerance to gluten in HLA-DQ2.5+ CeD patients. A positive control consisted of blood cells stimulated with phytohemagglutinin (PHA) (10 μg/mL) which activates all T cells regardless of their antigen specificity (i.e., a polyclonal activator). Negative controls consisted of cells treated with buffer only (PBS 1×).
(§4) After incubation for 24 hours at 37° C. and 5% CO2, plasma was separated from whole blood by centrifugation. Plasma was collected from each well and replicates (n=6 replicates per test) pooled. All plasma samples were frozen at −80° C. until analysis. Single plasma aliquots (100 μL) were thawed and analyzed in duplicate using MSD IL-2 S-plex according to the manufacturer's instructions.

[2] = test system: circulating gluten-specific CD4+ T cells in whole blood of HLA-DQ8+ CeD patients; test: Whole blood IL-2 cytokine release assay, HLA-DQ8+ CeD participants; type: cell-based, human; settings: for IL-2 response (in words): HLA-DQ8+ donors, whole blood; for IL-2 response (in words) / mean IL-2 titer: 24 hours; for mean IL-2 titer fold higher than Nex01/02 peptide mix / mean IL-2 titer: HLA-DQ8+ participants, 10 μM
Source text: FIGS. 11A-11B are graphs depicting the evaluation of the ability of various molarities of three gliadin polypeptides (Cv6, Av6, and 4K), two peptide mixes containing either the four individual building blocks BB1, BB2a, BB3a and BB4a (BB1-4a) or two Nexvax2 peptides (Nex01/02), and six individual building blocks or peptides (BB1, BB2a, BB3a, BB4a, Nex01, and Nex02) to restimulate gluten-specific T cell collected from HLA-DQ8+ CeD patients using a whole blood IL-2 release assay. The whole blood cytokine release assay was performed in four HLA-DQ8+ participants with biopsy-confirmed celiac disease as described in FIG. 10. Data are expressed in femtogram/mL of plasma (A), or as fold change from the negative control (PBS 1×) (B). Symbols represent individual participants (patient ID); bars represent the median+interquartile range of individual values.
as §1, §2, §3, §4

[3] = type: physicochemical; settings: for precipitate in solution: pure water, PBS 1×, artificial perspiration, room temperature and 32° C., 24 hours
Source text: Dimerization appeared to be faster in artificial perspiration and at higher concentration.

[4] = test system: 3072 1.26 (DQ2.5-glia-α1a specific) T cell clone; test: IFN-γ ELISpot T cell clone assay; type: cell-based, human; settings: 10 μM, 3072 1.26 clone
[5] = test system: 3007.28 (DQ2.5-glia-α2 specific) T cell clone; test: IFN-γ ELISpot T cell clone assay; type: cell-based, human; settings: 10 μM, 3007.28 clone
[6] = test system: 0177 2.61 (DQ2.5-glia-ω2 specific) T cell clone; test: IFN-γ ELISpot T cell clone assay; type: cell-based, human; settings: 10 μM, 0177 2.61 clone

Molecule	IL-2 response (in words) [1]	IL-2 response (in words) [2]	precipitate in solution [3]	mean IL-2 titer [1] [fg/mL]	mean IL-2 titer fold higher than Nex01/02 peptide mix [2] [fold]	mean IL-2 titer [2] [fg/mL]	mean spot forming units (IFN-γ ELISpot) [4]	mean spot forming units (IFN-γ ELISpot) [5]	mean spot forming units (IFN-γ ELISpot) [6]	dimer formation in solution (HPLC and LC-MS) ([3]; faster in artificial perspiration and at higher concentration)
H-PSGEGSFQPSQENPQ-NH2 [BB4a]	no or low response	potent IL-2 responses	–	–	–	–	–	–	–	–
H-PQPEQPEQPFPEQPQ-NH2 [BB2a]	no or low response	potent IL-2 responses	–	–	–	–	–	–	–	–
B1	–	–	no precipitate was observed	6664	9	3695	183	122	12	–
B2	–	–	–	4858	11	4528	159	117	16	forms some dimers in solution
B3	–	–	no precipitate was observed	7199	15	6300	177	109	11	–
